This is an account of results in PMC7991746, “Nucleophosmin Protein Dephosphorylation by DUSP3 Is a Fine-Tuning Regulator of p53 Signaling to Maintain Genomic Stability” (Frontiers in Cell and Developmental Biology, 2021).

Sequences and labels used below:
B2: DUSP3-WT (dual-specificity phosphatase 3) (enzyme, UniProt P51452 1-185, looked up)
chain: MSGSFELSVQDLNDLLSDGSGCYSLPSQPCNEVTPRIYVGNASVAQDIPKLQKLGITHVLNAAEGRSFMHVNTNANFYKDSGITYLGIKANDTQEFNLSAYFERAADFIDQALAQKNGRVLVHCREGYSRSPTLVIAYLMMRQKMDVKSALSIVRQNREIGPNDGFLAQLCQLNDRLAKEGKLKP
notes: DUSP3 (VHR), wild type, cDNA in pGEX-4T2 (Torres et al., 2017); Immobilised on a CM5 sensorchip; also called VHR; vaccinia virus H1-related phosphatase; source: E. coli BL-21 (DE3), purified (Glutathione-Sepharose 4B; GST removed by thrombin)

Non-standard residues stand in square brackets, D forms with d. No end group written: not given here. pY = N[C@@H](Cc1ccc(OP(=O)(O)O)cc1)C(=O)O

Experiment [1] has as its target B2. The experiment can be described thus: SPR; Biacore T100; DUSP3-WT immobilised on CM5 sensorchip (3,000 RU); peptides 5-40 μM in HBS-N buffer; 25°C, 120 s association, 300 s dissociation, 10 μl/min; three independent experiments. The note with it: both partners purified. Background: SPR reads the build-up and loss of mass on a sensor chip optically.
The target in experiment [2] is T1, ERK1 (UniProt P27361 1-379).
T1 construct: ERK1, cDNA in pGEX-4T2 donated by Prof; Rony Seger; The sentence on purification and on removal of GST names DUSP3 and NPM full length but not ERK1; source: E. coli BL-21 (DE3), purified recombinant protein
The experiment can be described thus: SPR; Biacore T100; DUSP3-WT or DUSP3-C124S immobilised on CM5 sensorchip (200 RU); protein analytes 12.5-1,000 nM; kinetic assays at 25°C, HBS-EP buffer, 10 μl/min, 120 s association, 300 s dissociation; three independent experiments. The note with it: both partners purified.

T1 sequence (P27361 whole entry): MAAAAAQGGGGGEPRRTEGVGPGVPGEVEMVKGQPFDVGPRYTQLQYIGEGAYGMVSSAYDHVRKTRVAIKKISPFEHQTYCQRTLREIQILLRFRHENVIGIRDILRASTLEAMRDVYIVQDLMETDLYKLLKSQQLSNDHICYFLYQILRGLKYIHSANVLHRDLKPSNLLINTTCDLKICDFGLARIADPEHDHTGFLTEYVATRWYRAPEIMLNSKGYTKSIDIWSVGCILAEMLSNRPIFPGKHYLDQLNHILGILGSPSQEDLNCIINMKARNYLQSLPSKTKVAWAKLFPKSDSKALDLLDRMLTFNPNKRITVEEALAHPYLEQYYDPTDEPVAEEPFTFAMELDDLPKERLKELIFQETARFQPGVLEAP

B1: phospho-Y-decapeptide p-NPM(Y17) (peptide)
peptide: SPLRPQN[pY]L
notes: Stretch of nucleophosmin around Y17; source: synthetic peptide, bought: Chinese Peptide Company
In turn, B1 displayed a Kd in experiment [1] of 1620 nM. B2 showed a dissociation constant (Kd) in experiment [2] of 178 nM.

B3: DUSP3-C124S mutant (phosphatase dead) (enzyme, UniProt P51452 1-185, looked up)
chain: MSGSFELSVQDLNDLLSDGSGCYSLPSQPCNEVTPRIYVGNASVAQDIPKLQKLGITHVLNAAEGRSFMHVNTNANFYKDSGITYLGIKANDTQEFNLSAYFERAADFIDQALAQKNGRVLVHSREGYSRSPTLVIAYLMMRQKMDVKSALSIVRQNREIGPNDGFLAQLCQLNDRLAKEGKLKP
notes: DUSP3 (VHR) with the catalytic cysteine 124 substituted by serine, cDNA in pGEX-4T2 (Torres et al., 2017); Immobilised on a CM5 sensorchip; source: E. coli BL-21 (DE3), purified (Glutathione-Sepharose 4B; GST removed by thrombin)
For B3, the dissociation constant (Kd) in experiment [2] was 130 nM.

B4: phospho-Y-decapeptide p-NPM(Y271) (peptide)
peptide: EAKFIN[pY]VKN
notes: Stretch of nucleophosmin around Y271; source: synthetic peptide, bought: Chinese Peptide Company
As to B4, binding in experiment [1] was put at a Kd of 2070 nM.

B5: phospho-Y-decapeptide p-NPM(Y29) (peptide)
peptide: ADKD[pY]HFKVD
notes: Stretch of nucleophosmin around Y29; source: synthetic peptide, bought: Chinese Peptide Company
Regarding B5, the equilibrium dissociation constant (Kd) in experiment [1] worked out at 2340 nM.

B6: phospho-Y-decapeptide p-NPM(Y67) (peptide)
peptide: AMN[pY]EGSPIK
notes: Stretch of nucleophosmin around Y67; source: synthetic peptide, bought: Chinese Peptide Company
In the case of B6, the equilibrium dissociation constant (Kd) in experiment [1] turned out to be 2010 nM. This Kd and that of the molecule before are within 1.5-fold of each other.

Broadly, the Kd is the concentration at which binding is half-saturated. A low value points to tighter binding.
